Data as given in patent US20070081999A1.
Blank lines part the entries; values can stand above or below the substance they belong to.

Assays:
[1] = target: human von Willebrand factor (vWF) (human) (UniProt P04275); assay: competition ELISA: inhibition of plasma or purified human vWF binding to coated human collagen type I
[2] = target: baboon von Willebrand factor (vWF) (baboon); assay: ex vivo occupancy ELISA, baboon plasma, 100 µg/kg, 60 min
[3] = target: baboon von Willebrand factor (vWF) (baboon); assay: ex vivo occupancy ELISA, baboon plasma, 600 µg/kg, 150 min
[4] = target: baboon von Willebrand factor (vWF) (baboon); assay: ex vivo occupancy ELISA, baboon plasma, 300 µg/kg, 150 min
[5] = target: baboon von Willebrand factor (vWF) (baboon); assay: ex vivo occupancy ELISA, baboon plasma, 100 µg/kg, 30 min
[6] = target: human von Willebrand factor (vWF) (human) (UniProt P04275); assay: cell-based or functional assay
[7] = target: baboon von Willebrand factor (vWF) (baboon); assay: ex vivo ELISA on coated human collagen type I, baboon plasma 60 min after 600 µg/kg mAb 82D6A3
[8] = target: baboon von Willebrand factor (vWF) (baboon); assay: ex vivo occupancy ELISA, baboon plasma, 300 µg/kg, 30 min
[9] = target: baboon von Willebrand factor (vWF) (baboon); assay: ex vivo occupancy ELISA, baboon plasma, 300 µg/kg, 300 min
[10] = target: baboon von Willebrand factor (vWF) (baboon); assay: ex vivo ELISA on coated human collagen type I, baboon plasma 1 hour after 100 µg/kg mAb 82D6A3
[11] = target: baboon von Willebrand factor (vWF) (baboon); assay: ex vivo occupancy ELISA, baboon plasma, 600 µg/kg, 30 min
[12] = target: baboon von Willebrand factor (vWF) (baboon); assay: ex vivo ELISA on coated human collagen type I, baboon plasma 60 min after 300 µg/kg mAb 82D6A3
[13] = target: baboon von Willebrand factor (vWF) (baboon); assay: ex vivo occupancy ELISA (vWF captured, bound mAb detected), baboon plasma, 100 µg/kg group, 0 min (before dosing)
[14] = target: baboon von Willebrand factor (vWF) (baboon); assay: ex vivo occupancy ELISA, baboon plasma, 600 µg/kg, 24 h
[15] = target: baboon von Willebrand factor (vWF) (baboon); assay: ex vivo occupancy ELISA, baboon plasma, 600 µg/kg group, 0 min (before dosing)
[16] = target: baboon von Willebrand factor (vWF) (baboon); assay: ex vivo occupancy ELISA, baboon plasma, 300 µg/kg, 60 min
[17] = target: baboon von Willebrand factor (vWF) (baboon); assay: ex vivo vWF-occupancy ELISA on baboon plasma against 82D6A3 plasma level
[18] = target: baboon von Willebrand factor (vWF) (baboon); assay: ex vivo occupancy ELISA, baboon plasma, 300 µg/kg, 48 h
[19] = target: baboon von Willebrand factor (vWF) (baboon); assay: ex vivo occupancy ELISA, baboon plasma, 300 µg/kg, 24 h
[20] = target: baboon von Willebrand factor (vWF) (baboon); assay: ex vivo occupancy ELISA, baboon plasma, 600 µg/kg, 60 min
[21] = target: baboon von Willebrand factor (vWF) (baboon); assay: ex vivo occupancy ELISA, baboon plasma, 600 µg/kg, 300 min
[22] = target: baboon von Willebrand factor (vWF) (baboon); assay: ex vivo occupancy ELISA, baboon plasma, 300 µg/kg group, 0 min (before dosing)
[23] = target: human placental collagen type I (fibrillar) (human) (UniProt P02452); assay: ex vivo ELISA on coated human collagen type I, baboon plasma 60 min after 100 µg/kg mAb 82D6A3, against the pre sample
[24] = target: human placental collagen type I (fibrillar) (human) (UniProt P02452); assay: ex vivo ELISA on coated human collagen type I, baboon plasma 150 min after 600 µg/kg mAb 82D6A3, against the pre sample
[25] = target: human placental collagen type I (fibrillar) (human) (UniProt P02452); assay: ex vivo ELISA on coated human collagen type I, baboon plasma 48 h after 300 µg/kg mAb 82D6A3, against the pre sample
[26] = target: human placental collagen type I (fibrillar) (human) (UniProt P02452); assay: ex vivo ELISA on coated human collagen type I, baboon plasma 300 min after 600 µg/kg mAb 82D6A3, against the pre sample
[27] = target: human placental collagen type I (fibrillar) (human) (UniProt P02452); assay: ex vivo ELISA on coated human collagen type I, baboon plasma 24 h after 300 µg/kg mAb 82D6A3, against the pre sample
[28] = target: human placental collagen type I (fibrillar) (human) (UniProt P02452); assay: ex vivo ELISA on coated human collagen type I, baboon plasma, 100 µg/kg mAb 82D6A3 group, 0 min (before dosing; pre sample set as 100%)
[29] = target: human placental collagen type I (fibrillar) (human) (UniProt P02452); assay: ex vivo ELISA on coated human collagen type I, baboon plasma 30 min after 300 µg/kg mAb 82D6A3, against the pre sample
[30] = target: human placental collagen type I (fibrillar) (human) (UniProt P02452); assay: ex vivo ELISA on coated human collagen type I, baboon plasma 30 min after 600 µg/kg mAb 82D6A3, against the pre sample
[31] = target: human placental collagen type I (fibrillar) (human) (UniProt P02452); assay: ex vivo ELISA on coated human collagen type I, baboon plasma, 300 µg/kg mAb 82D6A3 group, 0 min (before dosing; pre sample set as 100%)
[32] = target: human placental collagen type I (fibrillar) (human) (UniProt P02452); assay: ex vivo ELISA on coated human collagen type I, baboon plasma, 600 µg/kg mAb 82D6A3 group, 0 min (before dosing; pre sample set as 100%)
[33] = target: human placental collagen type I (fibrillar) (human) (UniProt P02452); assay: ex vivo ELISA on coated human collagen type I, baboon plasma 30 min after 100 µg/kg mAb 82D6A3, against the pre sample
[34] = target: human placental collagen type I (fibrillar) (human) (UniProt P02452); assay: ex vivo ELISA on coated human collagen type I, baboon plasma 60 min after 600 µg/kg mAb 82D6A3, against the pre sample
[35] = target: human placental collagen type I (fibrillar) (human) (UniProt P02452); assay: ex vivo ELISA on coated human collagen type I, baboon plasma 24 h after 600 µg/kg mAb 82D6A3, against the pre sample
[36] = target: human placental collagen type I (fibrillar) (human) (UniProt P02452); assay: ex vivo ELISA on coated human collagen type I, baboon plasma 300 min after 300 µg/kg mAb 82D6A3, against the pre sample
[37] = target: human placental collagen type I (fibrillar) (human) (UniProt P02452); assay: ex vivo ELISA on coated human collagen type I, baboon plasma 60 min after 300 µg/kg mAb 82D6A3, against the pre sample
[38] = target: human placental collagen type I (fibrillar) (human) (UniProt P02452); assay: ex vivo ELISA on coated human collagen type I, baboon plasma 150 min after 300 µg/kg mAb 82D6A3, against the pre sample

Sequence of human placental collagen type I (fibrillar) (human) (P02452 162-1218 limits assumed, chain 1 of 2): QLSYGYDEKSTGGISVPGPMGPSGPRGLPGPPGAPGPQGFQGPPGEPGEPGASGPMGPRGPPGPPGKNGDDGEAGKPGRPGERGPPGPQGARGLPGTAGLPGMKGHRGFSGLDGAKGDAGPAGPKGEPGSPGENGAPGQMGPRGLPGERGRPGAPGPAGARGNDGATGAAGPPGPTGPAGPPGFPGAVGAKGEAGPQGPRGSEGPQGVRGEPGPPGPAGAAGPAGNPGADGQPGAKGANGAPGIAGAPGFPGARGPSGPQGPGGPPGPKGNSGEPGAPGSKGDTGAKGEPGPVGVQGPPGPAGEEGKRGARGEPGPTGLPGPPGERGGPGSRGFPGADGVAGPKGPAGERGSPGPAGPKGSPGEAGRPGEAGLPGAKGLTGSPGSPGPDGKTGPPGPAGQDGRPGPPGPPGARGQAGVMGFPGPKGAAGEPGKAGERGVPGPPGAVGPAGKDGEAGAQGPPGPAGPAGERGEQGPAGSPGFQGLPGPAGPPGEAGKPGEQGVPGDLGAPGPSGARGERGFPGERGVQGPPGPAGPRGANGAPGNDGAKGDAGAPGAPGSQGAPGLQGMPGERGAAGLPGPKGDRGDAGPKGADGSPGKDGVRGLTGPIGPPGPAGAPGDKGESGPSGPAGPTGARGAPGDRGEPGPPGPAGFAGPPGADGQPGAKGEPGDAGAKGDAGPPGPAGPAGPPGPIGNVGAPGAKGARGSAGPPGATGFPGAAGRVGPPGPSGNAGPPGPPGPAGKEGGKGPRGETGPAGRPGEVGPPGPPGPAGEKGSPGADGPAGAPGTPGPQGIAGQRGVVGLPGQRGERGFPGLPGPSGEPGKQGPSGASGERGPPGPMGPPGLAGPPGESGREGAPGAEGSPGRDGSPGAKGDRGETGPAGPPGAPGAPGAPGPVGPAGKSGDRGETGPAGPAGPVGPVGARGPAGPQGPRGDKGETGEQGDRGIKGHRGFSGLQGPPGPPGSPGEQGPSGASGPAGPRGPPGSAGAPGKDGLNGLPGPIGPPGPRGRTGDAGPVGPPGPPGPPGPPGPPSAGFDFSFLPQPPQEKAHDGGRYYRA
Sequence of human placental collagen type I (fibrillar) (human) (P08123 80-1119 limits assumed, chain 2 of 2, further chain): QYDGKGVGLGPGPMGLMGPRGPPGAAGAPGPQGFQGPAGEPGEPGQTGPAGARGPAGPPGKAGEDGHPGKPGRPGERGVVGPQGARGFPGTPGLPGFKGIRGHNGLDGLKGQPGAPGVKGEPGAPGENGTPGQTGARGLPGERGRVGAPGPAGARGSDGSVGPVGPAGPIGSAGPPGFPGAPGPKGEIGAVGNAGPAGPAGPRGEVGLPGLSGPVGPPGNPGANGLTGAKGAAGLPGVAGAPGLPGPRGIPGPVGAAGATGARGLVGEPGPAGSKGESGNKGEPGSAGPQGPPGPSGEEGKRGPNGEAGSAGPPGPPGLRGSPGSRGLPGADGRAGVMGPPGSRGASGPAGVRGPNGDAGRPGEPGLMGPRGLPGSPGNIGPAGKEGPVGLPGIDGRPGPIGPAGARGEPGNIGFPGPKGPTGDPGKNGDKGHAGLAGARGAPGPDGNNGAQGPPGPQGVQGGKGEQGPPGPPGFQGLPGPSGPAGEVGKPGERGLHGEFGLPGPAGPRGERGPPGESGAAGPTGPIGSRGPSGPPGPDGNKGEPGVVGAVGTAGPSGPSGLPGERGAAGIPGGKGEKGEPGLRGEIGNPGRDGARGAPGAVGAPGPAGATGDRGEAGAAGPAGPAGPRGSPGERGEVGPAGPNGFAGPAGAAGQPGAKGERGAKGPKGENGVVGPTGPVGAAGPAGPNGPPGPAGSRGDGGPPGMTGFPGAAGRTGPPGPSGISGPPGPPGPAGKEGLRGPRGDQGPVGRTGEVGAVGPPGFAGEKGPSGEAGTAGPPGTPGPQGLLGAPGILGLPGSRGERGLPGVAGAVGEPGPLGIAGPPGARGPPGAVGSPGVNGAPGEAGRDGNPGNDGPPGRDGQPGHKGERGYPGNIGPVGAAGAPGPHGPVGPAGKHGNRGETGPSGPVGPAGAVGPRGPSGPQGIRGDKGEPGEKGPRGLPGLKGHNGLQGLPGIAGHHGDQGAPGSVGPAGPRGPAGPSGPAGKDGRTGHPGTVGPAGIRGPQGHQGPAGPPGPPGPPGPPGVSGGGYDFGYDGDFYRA
Sequence of human von Willebrand factor (vWF) (human) (P04275 764-2813 limits assumed): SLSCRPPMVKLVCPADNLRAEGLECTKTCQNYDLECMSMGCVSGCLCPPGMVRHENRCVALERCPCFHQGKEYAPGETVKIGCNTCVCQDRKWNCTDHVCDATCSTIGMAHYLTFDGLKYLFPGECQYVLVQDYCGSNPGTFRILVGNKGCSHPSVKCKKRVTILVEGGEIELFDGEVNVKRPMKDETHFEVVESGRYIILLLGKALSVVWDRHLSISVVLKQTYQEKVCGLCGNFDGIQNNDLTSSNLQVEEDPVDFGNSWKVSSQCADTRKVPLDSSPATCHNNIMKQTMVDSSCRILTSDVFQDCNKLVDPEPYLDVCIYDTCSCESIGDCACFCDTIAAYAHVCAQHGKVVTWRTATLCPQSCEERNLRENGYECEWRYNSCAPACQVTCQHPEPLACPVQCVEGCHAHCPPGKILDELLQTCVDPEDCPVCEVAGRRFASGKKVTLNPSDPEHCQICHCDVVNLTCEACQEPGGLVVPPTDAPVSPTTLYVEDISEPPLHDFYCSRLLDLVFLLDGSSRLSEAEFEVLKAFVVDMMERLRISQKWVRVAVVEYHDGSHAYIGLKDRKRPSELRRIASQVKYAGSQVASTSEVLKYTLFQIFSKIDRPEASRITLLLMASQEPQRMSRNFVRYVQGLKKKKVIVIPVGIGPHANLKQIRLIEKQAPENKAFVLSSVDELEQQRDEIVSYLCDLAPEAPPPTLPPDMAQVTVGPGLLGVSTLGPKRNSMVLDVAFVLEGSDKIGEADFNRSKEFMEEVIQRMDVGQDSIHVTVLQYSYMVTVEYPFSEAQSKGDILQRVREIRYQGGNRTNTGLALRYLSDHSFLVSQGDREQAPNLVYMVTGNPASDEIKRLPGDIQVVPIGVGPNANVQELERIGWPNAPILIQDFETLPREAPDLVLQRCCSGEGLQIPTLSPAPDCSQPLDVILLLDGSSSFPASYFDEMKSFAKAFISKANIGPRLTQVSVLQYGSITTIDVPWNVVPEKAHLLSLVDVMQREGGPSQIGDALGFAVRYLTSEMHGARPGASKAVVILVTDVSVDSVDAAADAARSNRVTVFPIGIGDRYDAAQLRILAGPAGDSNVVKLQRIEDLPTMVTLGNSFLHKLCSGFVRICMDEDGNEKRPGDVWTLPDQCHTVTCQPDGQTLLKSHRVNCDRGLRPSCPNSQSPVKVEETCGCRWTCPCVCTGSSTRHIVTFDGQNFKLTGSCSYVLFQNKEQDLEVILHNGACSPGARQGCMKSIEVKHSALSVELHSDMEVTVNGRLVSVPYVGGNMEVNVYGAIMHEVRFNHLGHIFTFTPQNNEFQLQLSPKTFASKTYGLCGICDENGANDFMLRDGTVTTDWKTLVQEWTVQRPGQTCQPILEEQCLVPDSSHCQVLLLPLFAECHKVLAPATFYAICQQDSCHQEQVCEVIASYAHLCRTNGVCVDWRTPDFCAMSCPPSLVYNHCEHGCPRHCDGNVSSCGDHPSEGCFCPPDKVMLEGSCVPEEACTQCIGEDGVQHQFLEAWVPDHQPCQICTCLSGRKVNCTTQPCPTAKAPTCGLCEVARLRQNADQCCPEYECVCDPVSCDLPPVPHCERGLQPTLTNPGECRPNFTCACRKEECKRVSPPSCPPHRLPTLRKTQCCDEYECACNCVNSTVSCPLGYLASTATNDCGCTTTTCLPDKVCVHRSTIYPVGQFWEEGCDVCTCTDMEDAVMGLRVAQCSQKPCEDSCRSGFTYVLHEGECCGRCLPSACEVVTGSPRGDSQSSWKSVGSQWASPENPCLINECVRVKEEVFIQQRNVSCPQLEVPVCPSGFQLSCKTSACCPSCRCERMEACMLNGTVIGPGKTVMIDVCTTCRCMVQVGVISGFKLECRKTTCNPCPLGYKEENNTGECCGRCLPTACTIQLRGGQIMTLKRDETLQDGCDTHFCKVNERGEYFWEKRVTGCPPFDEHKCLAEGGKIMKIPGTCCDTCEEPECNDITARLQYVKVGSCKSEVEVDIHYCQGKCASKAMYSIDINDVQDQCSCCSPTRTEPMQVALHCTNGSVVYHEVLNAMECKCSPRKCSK

IC50 [1]: 0.02 µg/mL | vWF occupancy (%) [2]: 80% | vWF occupancy (%) [3]: 97% | vWF occupancy (%) [4]: 101% | vWF occupancy (%) [5]: 80% | platelet deposition onto human collagen type I in flow, shear rate 1300 s^-1 [6]: 1 to 5 µg/mL | ex vivo inhibition of the vWF-collagen interaction (%) [7]: 96% | vWF occupancy (%) [8]: 102% | vWF occupancy (%) [9]: 94% | ex vivo inhibition of the vWF-collagen binding (%) [10]: 31% | vWF occupancy (%) [11]: 96% | ex vivo inhibition of the vWF-collagen interaction (%) [12]: 96% | vWF occupancy (%) [13]: 2.3% | vWF occupancy (%) [14]: 88% | vWF occupancy (%) [15]: 6.9% | vWF occupancy (%) [16]: 99% | plasma level from which vWF-occupancy is maximal [17]: 1 µg/mL | vWF occupancy (%) [18]: 63% | vWF occupancy (%) [19]: 74% | vWF occupancy (%) [20]: 96% | vWF occupancy (%) [21]: 97% | vWF occupancy (%) [22]: 2.3%
Substance: murine anti-human vWF monoclonal antibody mAb 82D6A3

IC50 [1]: 1 µg/mL | platelet deposition onto human collagen type I in flow, shear rate 1300 s^-1 [6]: 10 µg/mL
Substance: 82D6A3 F(ab) fragment (Fab)

collagen binding (%) [23]: 69% | collagen binding (%) [24]: 3.52% | collagen binding (%) [25]: 93% | collagen binding (%) [26]: 4% | collagen binding (%) [27]: 91% | collagen binding (%) [28]: 101% | collagen binding (%) [29]: 4% | collagen binding (%) [30]: 4% | collagen binding (%) [31]: 101% | collagen binding (%) [32]: 100% | collagen binding (%) [33]: 64% | collagen binding (%) [34]: 3.5% | collagen binding (%) [35]: 45% | collagen binding (%) [36]: 4% | collagen binding (%) [37]: 4% | collagen binding (%) [38]: 4%
Substance: baboon von Willebrand factor (vWF), A0A096N8H2 764-2813
